According to the supplement of paper PMC9112550, “Optimization of the antimicrobial peptide Bac7 by deep mutational scanning” (BMC Biology, 2022):

Test system: Escherichia coli TOP10
Assay: shrunken log2 fold change of peptide-encoding DNA abundance (4.5 h post-induction vs induction); higher = less antimicrobial activity (less host growth inhibition)
Conditions: time post-induction: 4.5 h; library: site-saturation at positions 5, 18, 19, 20
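Further: peptides expressed intracellularly from a pBAD plasmid library in pooled LB shake-flask culture, induced with 0.3% L-arabinose, DNA abundance read by NGS, three biological replicates, DESeq2 with apeglm shrinkage.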

RRIRPRPPRLPRPRPRPTQCPRP and RRIRPRPPRLPRPRPRPTSTPRP are within 0.2 log units of each other in “shrunken log2 fold change” value: -0.194 for the first, -0.0454 for the second.

Compared with RRIRPRPPRLPRPRPRPTTSPRP, RRIRPRPPRLPRPRPRPTVYPRP is lower in “shrunken log2 fold change” value: 0.181 for the first, -0.296 for the second.

Going from RRIRPRPPRLPRPRPRPTWLPRP to RRIRPRPPRLPRPRPRPTYNPRP, the “shrunken log2 fold change” value falls from 0.522 to -0.664.

First: RRIRPRPPRLPRPRPRPVCGPRP
Second: RRIRPRPPRLPRPRPRPVCYPRP
The “shrunken log2 fold change” value of the first is higher: 0.208 for the first, -0.309 for the second.

First: RRIRPRPPRLPRPRPRPVDHPRP
Second: RRIRPRPPRLPRPRPRPVDWPRP
The “shrunken log2 fold change” value of the first is lower: 0.0611 for the first, 0.656 for the second.

Going from RRIRPRPPRLPRPRPRPVGVPRP to RRIRPRPPRLPRPRPRPVHDPRP, the “shrunken log2 fold change” value falls from 0.52 to -0.115.

First: RRIRPRPPRLPRPRPRPVIPPRP
Second: RRIRPRPPRLPRPRPRPVKEPRP
The “shrunken log2 fold change” value of the first is lower: -0.213 for the first, 0.0267 for the second.

Compared with RRIRPRPPRLPRPRPRPVKQPRP, RRIRPRPPRLPRPRPRPVLDPRP is lower in “shrunken log2 fold change” value: 0.169 for the first, -0.304 for the second.

RRIRPRPPRLPRPRPRPVLLPRP and RRIRPRPPRLPRPRPRPVMLPRP are within 0.2 log units of each other in “shrunken log2 fold change” value: 0.00267 for the first, -0.0771 for the second.

RRIRPRPPRLPRPRPRPVMTPRP and RRIRPRPPRLPRPRPRPVPHPRP are within 0.2 log units of each other in “shrunken log2 fold change” value: -0.0299 for the first, 0.0546 for the second.

RRIRPRPPRLPRPRPRPVPPPRP and RRIRPRPPRLPRPRPRPVPVPRP are within 0.2 log units of each other in “shrunken log2 fold change” value: 0.26 for the first, 0.136 for the second.

RRIRPRPPRLPRPRPRPVQRPRP and RRIRPRPPRLPRPRPRPVQTPRP are within 0.2 log units of each other in “shrunken log2 fold change” value: 0.0521 for the first, 0.00686 for the second.

Compared with RRIRPRPPRLPRPRPRPVQYPRP, RRIRPRPPRLPRPRPRPVREPRP is higher in “shrunken log2 fold change” value: -0.0191 for the first, 0.605 for the second.

Compared with RRIRPRPPRLPRPRPRPVSAPRP, RRIRPRPPRLPRPRPRPVSGPRP is higher in “shrunken log2 fold change” value: 0.249 for the first, 0.584 for the second.

Compared with RRIRPRPPRLPRPRPRPVSSPRP, RRIRPRPPRLPRPRPRPVTDPRP is lower in “shrunken log2 fold change” value: -0.0455 for the first, -0.393 for the second.

RRIRPRPPRLPRPRPRPVVDPRP and RRIRPRPPRLPRPRPRPVWGPRP are within 0.2 log units of each other in “shrunken log2 fold change” value: -0.107 for the first, 0.0591 for the second.

RRIRPRPPRLPRPRPRPVWHPRP and RRIRPRPPRLPRPRPRPVWMPRP are within 0.2 log units of each other in “shrunken log2 fold change” value: 0.186 for the first, 0.136 for the second.

Compared with RRIRPRPPRLPRPRPRPVWWPRP, RRIRPRPPRLPRPRPRPVYQPRP is lower in “shrunken log2 fold change” value: 0.232 for the first, -0.0913 for the second.

Compared with RRIRPRPPRLPRPRPRPWALPRP, RRIRPRPPRLPRPRPRPWCIPRP is lower in “shrunken log2 fold change” value: -0.0895 for the first, -0.519 for the second.

Going from RRIRPRPPRLPRPRPRPWCPPRP to RRIRPRPPRLPRPRPRPWCTPRP, the “shrunken log2 fold change” value falls from 2.07 to -0.218.

RRIRPRPPRLPRPRPRPWEEPRP and RRIRPRPPRLPRPRPRPWETPRP are within 0.2 log units of each other in “shrunken log2 fold change” value: 0.148 for the first, 0.124 for the second.

First: RRIRPRPPRLPRPRPRPWFEPRP
Second: RRIRPRPPRLPRPRPRPWFRPRP
The “shrunken log2 fold change” value of the first is lower: -0.261 for the first, -0.0017 for the second.

First: RRIRPRPPRLPRPRPRPWFVPRP
Second: RRIRPRPPRLPRPRPRPWGGPRP
The “shrunken log2 fold change” value of the first is lower: -0.25 for the first, 0.702 for the second.

Going from RRIRPRPPRLPRPRPRPWGIPRP to RRIRPRPPRLPRPRPRPWGNPRP, the “shrunken log2 fold change” value falls from -0.0138 to -0.225.

First: RRIRPRPPRLPRPRPRPWHNPRP
Second: RRIRPRPPRLPRPRPRPWHTPRP
The “shrunken log2 fold change” value of the first is lower: -0.809 for the first, -0.087 for the second.

First: RRIRPRPPRLPRPRPRPWLHPRP
Second: RRIRPRPPRLPRPRPRPWLVPRP
The “shrunken log2 fold change” value of the first is lower: -0.173 for the first, 0.159 for the second.

Compared with RRIRPRPPRLPRPRPRPWMIPRP, RRIRPRPPRLPRPRPRPWMYPRP is lower in “shrunken log2 fold change” value: -0.334 for the first, -0.691 for the second.

RRIRPRPPRLPRPRPRPWNDPRP and RRIRPRPPRLPRPRPRPWPDPRP are within 0.2 log units of each other in “shrunken log2 fold change” value: 0.0243 for the first, -0.149 for the second.

First: RRIRPRPPRLPRPRPRPWQMPRP
Second: RRIRPRPPRLPRPRPRPWSTPRP
The “shrunken log2 fold change” value of the first is higher: 0.0571 for the first, -0.172 for the second.

Compared with RRIRPRPPRLPRPRPRPWVDPRP, RRIRPRPPRLPRPRPRPYCPPRP is lower in “shrunken log2 fold change” value: 0.064 for the first, -0.365 for the second.

RRIRPRPPRLPRPRPRPYDFPRP and RRIRPRPPRLPRPRPRPYEAPRP are within 0.2 log units of each other in “shrunken log2 fold change” value: -0.194 for the first, -0.282 for the second.

RRIRPRPPRLPRPRPRPYFSPRP and RRIRPRPPRLPRPRPRPYGYPRP are within 0.2 log units of each other in “shrunken log2 fold change” value: -0.31 for the first, -0.138 for the second.

RRIRPRPPRLPRPRPRPYHIPRP and RRIRPRPPRLPRPRPRPYINPRP are within 0.2 log units of each other in “shrunken log2 fold change” value: -0.672 for the first, -0.739 for the second.

Compared with RRIRPRPPRLPRPRPRPYITPRP, RRIRPRPPRLPRPRPRPYLFPRP is higher in “shrunken log2 fold change” value: -0.739 for the first, -0.434 for the second.

RRIRPRPPRLPRPRPRPYLHPRP and RRIRPRPPRLPRPRPRPYLIPRP are within 0.2 log units of each other in “shrunken log2 fold change” value: -0.471 for the first, -0.445 for the second.

RRIRPRPPRLPRPRPRPYLMPRP and RRIRPRPPRLPRPRPRPYLTPRP are within 0.2 log units of each other in “shrunken log2 fold change” value: -0.58 for the first, -0.689 for the second.

First: RRIRPRPPRLPRPRPRPYMWPRP
Second: RRIRPRPPRLPRPRPRPYNGPRP
The “shrunken log2 fold change” value of the first is higher: -0.455 for the first, -0.656 for the second.

RRIRPRPPRLPRPRPRPYNLPRP was tested, and the “shrunken log2 fold change” value was -0.708.
